Reference: US20260265385A1 (ANAPTYSBIO, published 2026)

T1: recombinant human IL-2Rβ (extracellular domain, Ala1-Thr215) (human, UniProt P14784 27-240)
T1 construct: extracellular domain; Analyte in SPR; Ala1-Thr215 is counted on the mature protein; also called human LL-2Rβ; Human IL-2RB
T1 sequence (looked up): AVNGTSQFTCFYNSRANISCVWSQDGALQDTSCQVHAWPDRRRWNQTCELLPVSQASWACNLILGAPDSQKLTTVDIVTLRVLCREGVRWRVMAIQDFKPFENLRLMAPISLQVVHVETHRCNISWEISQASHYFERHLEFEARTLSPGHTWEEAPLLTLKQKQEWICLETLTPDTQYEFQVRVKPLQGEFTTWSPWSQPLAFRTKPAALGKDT

T2: recombinant cynomolgus IL-2Rβ (extracellular domain, Ala1-Thr215) (cynomolgus, UniProt Q38J85 27-240)
T2 construct: extracellular domain; Analyte in SPR; also called cynomolgus LL-2Rβ; Cyno IL-2RB
T2 sequence (looked up): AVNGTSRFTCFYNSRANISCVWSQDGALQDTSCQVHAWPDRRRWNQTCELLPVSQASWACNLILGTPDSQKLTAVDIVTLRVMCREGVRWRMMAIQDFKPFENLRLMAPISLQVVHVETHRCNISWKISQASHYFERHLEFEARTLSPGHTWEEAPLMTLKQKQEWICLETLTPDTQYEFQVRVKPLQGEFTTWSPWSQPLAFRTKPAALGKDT

T3: human IL-2Rβ (CD122), full-length, on cells (human, UniProt P14784 27-551)
T3 construct: whole, on cells; also called human IL-2Rβγ; human IL-2βγ
T3 sequence (looked up): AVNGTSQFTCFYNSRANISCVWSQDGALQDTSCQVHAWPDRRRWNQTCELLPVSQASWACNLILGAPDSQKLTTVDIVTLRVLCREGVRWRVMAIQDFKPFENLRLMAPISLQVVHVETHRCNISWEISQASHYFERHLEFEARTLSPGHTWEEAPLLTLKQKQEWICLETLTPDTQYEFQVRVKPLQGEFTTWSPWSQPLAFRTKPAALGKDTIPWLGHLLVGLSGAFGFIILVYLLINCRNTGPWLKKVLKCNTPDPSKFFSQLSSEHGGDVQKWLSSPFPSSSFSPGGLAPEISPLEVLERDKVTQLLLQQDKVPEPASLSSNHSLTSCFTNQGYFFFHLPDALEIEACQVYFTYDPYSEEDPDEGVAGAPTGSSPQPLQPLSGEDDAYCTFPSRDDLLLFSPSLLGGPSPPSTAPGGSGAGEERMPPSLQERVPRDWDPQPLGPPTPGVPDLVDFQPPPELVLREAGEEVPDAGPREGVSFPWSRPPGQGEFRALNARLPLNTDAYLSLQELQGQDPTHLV

T4: cynomolgus IL-2Rβ (CD122), full-length, on cells (cynomolgus, UniProt Q38J85 27-551)
T4 construct: whole, on cells; Co-expressed with full-length cynomolgus IL-2Rγ on CHO-K1 cells; also called cynomolgus IL-2Rβγ; cyno IL-2βγ
T4 sequence (looked up): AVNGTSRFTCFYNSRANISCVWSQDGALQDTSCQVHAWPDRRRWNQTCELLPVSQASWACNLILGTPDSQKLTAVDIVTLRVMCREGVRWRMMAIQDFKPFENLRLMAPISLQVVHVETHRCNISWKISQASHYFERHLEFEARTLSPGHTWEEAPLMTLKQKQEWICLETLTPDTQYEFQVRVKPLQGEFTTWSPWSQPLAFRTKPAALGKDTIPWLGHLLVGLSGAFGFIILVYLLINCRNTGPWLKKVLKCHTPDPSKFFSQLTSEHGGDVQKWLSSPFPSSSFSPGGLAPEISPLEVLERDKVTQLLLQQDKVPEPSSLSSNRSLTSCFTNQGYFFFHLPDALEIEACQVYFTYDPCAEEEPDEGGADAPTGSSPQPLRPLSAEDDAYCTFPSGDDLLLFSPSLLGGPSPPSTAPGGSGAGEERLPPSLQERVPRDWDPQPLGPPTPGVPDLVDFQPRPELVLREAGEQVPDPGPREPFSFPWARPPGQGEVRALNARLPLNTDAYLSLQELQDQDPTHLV


Key:
[1] = molecular target: T1, recombinant human IL-2Rβ (extracellular …); assay: SPR, antibody captured on Protein A chip
Protocol: (§1) Surface plasmon resonance (SPR) was used to determine the binding affinities. The M6-1625 and M10-1275 antibodies were captured onto a Cytiva Protein A Chip for 60 seconds at 0.5 μg/mL for 60 seconds. The antibodies were exposed to recombinant human LL-2Rβ or cynomolgus LL-2Rβ (corresponding to residues Ala1-Thr215 of the extracellular domains excluding the signal peptide) at typical concentrations ranging from 0.4 nM to 11 nM with typical 300 second associations and 1200 second dissociations using a BiacoreS200 instrument. Sensorgrams were fit globally using a 1:1 binding model in the Biacore T200 Evaluation Software to calculate on- and off-rates and KD values.

[2] = molecular target: T2, recombinant cynomolgus IL-2Rβ …; assay: SPR, antibody captured on Protein A chip
Protocol: as §1

[3] = molecular target: T3, human IL-2Rβ (CD122), full-length, on …; assay: flow cytometry on CHO-K1 cells expressing human IL-2Rβ and IL-2Rγ (panel 'Cell Binding human IL-2Rbg CHO'); unit taken from the axis 'Antibody Concentration nM'
Protocol: (§2) CHO-K1 cells stably expressing either full-length human or cyno IL-2Rβ and IL-2Rγ cultured in the log phase of growth were harvested with Accutase solution, resuspended in FACS buffer, and plated at 100,000 cells/well in a 96 well plate. The concentrations indicated in FIG. 5 of antibodies starting at 100 nM and diluted 1:3 were incubated with the cells for 45 minutes on a plate shaker at4° C. After washing, cells were incubated with goat anti-human kappa DyL650 secondary antibody for 20 minutes on a plate shaker at4° C. Cells were washed again and analyzed on a FACSArray flow cytometer. Data were analyzed using Novoexpress and GraphPad Prism software.

[4] = molecular target: T4, cynomolgus IL-2Rβ (CD122), full-length, …; assay: flow cytometry on CHO-K1 cells expressing cynomolgus IL-2Rβ and IL-2Rγ (panel 'Cell Binding cyno IL-2Rbg CHO'); unit taken from the axis 'Antibody Concentration nM'
Protocol: as §2

[5] = molecular target: T3, human IL-2Rβ (CD122), full-length, on …; assay: flow cytometry competition: antibody titrated against recombinant IL-2 (5 nM) binding to HEK293 cells expressing human IL-2Rβ and IL-2Rγ
Protocol: (§3) HEK293 cells stably transfected with human IL-2Rβ and IL-2Rγ were plated at 100,000 cells/well in a 96 well plate. Antibodies were titrated at the concentrations indicated in FIG. 8 starting at 100 nM and diluted 1:3, and added to the cells. Recombinant IL-2 (5 nM) or recombinant IL-15 (2 nM) were also added to the cells. Cells were incubated for 30 minutes on a plate shaker at 4° C. Cells were washed and then analyzed on a flow cytometer, and data were analyzed using Novoexpress and GraphPad Prism software.

[6] = molecular target: T3, human IL-2Rβ (CD122), full-length, on …; assay: flow cytometry competition: antibody titrated against recombinant IL-15 (2 nM) binding to HEK293 cells expressing human IL-2Rβ and IL-2Rγ
Protocol: as §3

[7] = molecular target: T1, recombinant human IL-2Rβ (extracellular …); assay: SPR
[8] = molecular target: T2, recombinant cynomolgus IL-2Rβ …; assay: SPR
[9] = molecular target: T3, human IL-2Rβ (CD122), full-length, on …; assay: flow cytometry on CHO-K1 cells expressing human IL-2Rβ and IL-2Rγ
Protocol: (§4) CHO-K1 cells stably expressing full-length human or cynomolgus IL-2Rβ and IL-2Rγ cultured in the log phase of growth were harvested with Accutase solution, resuspended in FACS buffer, and plated at 100,000 cells/well in a 96-well plate. The concentrations of antibodies indicated in FIGS. 1 and 2 starting at 100 nM and diluted 1:3 were incubated with the cells for 45 minutes on a plate shaker at 4° C. After washing, the cells were incubated with goat-anti-human kappa DyL650 secondary antibody for 20 minutes on a plate shaker at 4° C. Cells were washed again and analyzed on a FACSArray flow cytometer. Data were analyzed using Novoexpress and GraphPad Prism software. Table 3 lists anti-CD122 chimeric antibody binding characteristics: affinity to human and cyno CD122 protein (KD, measured by SPR assay), ability to block IL-2 (SPR assay), and binding EC50 to cell-expressed human and cyno CD122/CD132 (cell-based receptor binding assay).

[10] = molecular target: T4, cynomolgus IL-2Rβ (CD122), full-length, …; assay: flow cytometry on CHO-K1 cells expressing cynomolgus IL-2Rβ and IL-2Rγ
Protocol: as §4

Row | Binder | Kd [1] [nM] | Kd [2] [nM] | EC50 [3] [nM] | EC50 [4] [nM] | IC50 (read off the curve) [5] [nM] | IC50 (read off the curve) [6] [nM] | Kd [7] [nM] | Kd [8] [nM] | EC50 [9] [nM] | EC50 [10] [nM]
1 | APE15140 (antibody, V domains shown, M10-1275 series) VH: EVQLVQSGAEVKKPGATVKISCKVSGFNFKESLIHWVQQAPGKGLEWMGWIDNEAGETEYAPGFQDRVTITADTSTDTAYMELSSLRSEDTAVYYCARGGPWFLSYWGQGTTVTVSS VL: EIVMTQSPATLSVSPGERATLSCRASQIISNNLHWYQQKPGQAPRLLIIYGLQSISGIPARFSGSRSGTEFTLTISSLQSEDFAVYYCQQSNNWPWTFGQGTKLEIKR | 0.0217 | 0.0102 | 0.138 | 0.18 | – | – | – | – | – | –
2 | APE12705 (antibody, V domains shown, M10-1275 series; human kappa detected by the secondary antibody; also called APE 12705.02; M10-1275) VH: DVQLQQSGAELARPGASVKLSCTVSGFNFKDSLMHWVTQGPERGLRWIGWIDSENGETEYAPGFQDKATITADTSSSTVYLHLSSLTSEDTAIYYCARGGPWFLSYWGPGTTLTVSS VL: DIVLTQTPATLSVTPGDSVSLSCRASQIISNNLHWYQQKSHESPRLLIIYGLQSISGIPYRFSGRRSGTDFTLNINSVEIEDFGMYFCQQSNNWPWTFGGGTKLDIRR | 0.08 | 0.02 | – | – | – | – | ~0.08 | ~0.02 | 0.174 | 0.0876
3 | APE15170 (antibody, M10-1275 series) heavy: not shown light: EIVMTQSPATLSVSPGERATLSCRASQIISNNLHWYQQKPGQAPRLLIIYGLQSISGIPARFSGSRSGTEFTLTISSLQSEDFAVYFCQQSNNFPWTFGQGTKLEIKRTVAAPSVFIFPPSDEQLKSGTASVVCLLNNFYPREAKVQWKVDNALQSGNSQESVTEQDSKDSTYSLSSTLTLSKADYEKHKVYACEVTHQGLSSPVTKSFNRGEC | 0.0128 | 0.00487 | 0.139 | 0.146 | ~0.4 | ~0.4 | – | – | – | –
4 | APE15142 (antibody, V domains shown, M10-1275 series) VH: EVQLVQSGAEVKKPGATVKISCKVSGFNFKYSLIHWVQQAPGKGLEWMGWIDNEAGETEYAPGFQDRVTITADTSTDTAYMELSSLRSEDTAVYYCARGGPWFLSYWGQGTTVTVSS VL: EIVMTQSPATLSVSPGERATLSCRASQIISNNLHWYQQKPGQAPRLLIIYGLQSISGIPARFSGSRSGTEFTLTISSLQSEDFAVYYCQQSNNWPWTFGQGTKLEIKR | 0.0222 | 0.0105 | 0.147 | 0.163 | – | – | – | – | – | –

The next lines start with the values.

Row | Kd [1] [nM] | Kd [2] [nM] | EC50 [3] [nM] | EC50 [4] [nM] | IC50 (read off the curve) [5] [nM] | IC50 (read off the curve) [6] [nM] | Kd [7] [nM] | Kd [8] [nM] | EC50 [9] [nM] | EC50 [10] [nM] | Binder
5 | 0.0995 | 0.0144 | 0.308 | 0.333 | – | – | – | – | – | – | APE15169 (antibody, V domains shown, M10-1275 series) VH: EVQLVQSGAEVKKPGATVKISCKVSGFNFKESLIHWVQQAPGKGLEWMGWIDNEAGETEYAPGFQDRVTITADTSTDTAYMELSSLRSEDTAVYYCARGGPWFLSYWGQGTTVTVSS VL: EIVMTQSPATLSVSPGERATLSCRASQIISNNLHWYQQKPGQAPRLLIIYGLQSISGIPARFSGSRSGTEFTLTISSLQSEDFAVYFCQQSNNWPYTFGQGTKLEIKR
6 | 0.0945 | 0.0715 | 0.105 | 0.103 | – | – | – | – | – | – | APE15148 (antibody, V domains shown, M6-p1625 series) VH: QVQLVQSGAEVKKPGASVKVSCKASGYTFSRYWIQWVRQAPGQGLEWMGEILPGSGSINHNEKFQGRVTMTRDTSTSTVYMELSSLRSEDTAVYYCTRHYGSFDYWGQGTTVTVSS VL: DIQMTQSPSSLSASVGDRVTITCKASQNVGTDVAWYQQKPGKAPKSLIYSASYRYSGVPSRFSGSGSGTDFTLTISSLQPEDFATYFCHQYESYPFTFGQGTKLEIKR
7 | 0.0557 | 0.0707 | – | – | ~0.08 | ~0.05 | – | – | – | – | APE15295 (antibody, M6-p1625 series) heavy: not shown light: DIQMTQSPSSLSASVGDRVTITCKASQNVGTDVAWYQQKPGKAPKSLIYSASYRYSGVPSRFSGSGSGTDFTLTISSLQPEDFATYFCHQYESYPFTFGQGTKLEIKRTVAAPSVFIFPPSDEQLKSGTASVVCLLNNFYPREAKVQWKVDNALQSGNSQESVTEQDSKDSTYSLSSTLTLSKADYEKHKVYACEVTHQGLSSPVTKSFNRGEC
